Assay results as given in patent US9493780B2, “Chloroplast transit peptide” (Dow AgroSciences LLC, priority 2012, dated 2016).
“Also recorded” adds a separate entry of the source.

Key:
[1] = system: chloroplasts of the maize protoplast; test: Maize protoplast transient assay of TraP14-GFP (microscopy); type: cell-based, Zea mays; conditions: TraP14-GFP fusion; microscopy after 12 hours of incubation
Excerpt: The Trap14v2 chimeric chloroplast transit peptide sequence (SEQ ID NO:8) were cloned upstream of the green fluorescent protein gene and incorporated into construct pDAB109902 (FIG. 4) for testing via the maize protoplast transient in planta assay. The resulting constructs contained a single plant transcription unit (PTU). The first PTU was comprised of the Zea mays Ubiquitin 1 promoter (ZmUbi1 promoter; Christensen, A., Sharrock R., and Quail P., (1992) Maize polyubiquitin genes: structure, thermal perturbation of expression and transcript splicing, and promoter activity following transfer to protoplasts by electroporation, Plant Molecular Biology, 18:675-689), TraP-green fluorescent protein fusion gene (TraP14-GFP; U.S. Pat. No. 7,678,893), and Zea mays Peroxidase 5 3′ untranslated region (ZmPer5 3′UTR; U.S. Pat. No. 6,384,207). The constructs were confirmed via restriction enzyme digestion and sequencing.
Seed of Zea mays var. B104 were surface sterilized by shaking vigorously in 50% Clorox (3% sodium hypochlorite), containing 2-3 drops of Tween 20, for about 20 minutes. […]
Transfection of 100 to 500 μl of protoplasts (1−5×10^5) was completed by adding the protoplasts to a 2 ml microfuge tube containing about 40 μg of plasmid DNA (pDAB106597), at room temperature. […] Fluorescence of GFP was viewed by microscopy after 12 hours of incubation. […]

T2 Arabidopsis = T2 Arabidopsis events response to glyphosate applied postemergence, visual % injury; type: in vivo, Arabidopsis thaliana; conditions: T2 Arabidopsis single copy events
Excerpt: The second generation plants (T2) of selected T1 Arabidopsis events which contained low copy numbers of the dgt-28 transgene were further characterized for glyphosate tolerance. Glyphosate was applied as described previously. The response of the plants is presented in terms of % visual injury 2 weeks after treatment (WAT). […] An arithmetic mean and standard deviation are presented for each construct used for Arabidopsis transformation. The range in individual response is also indicated in the last column for each rate and transformation. Wild-type, non-transformed Arabidopsis (cv. Columbia) served as a glyphosate sensitive control. In the T2 generation hemizygous and homozygous plants were available for testing for each event and therefore were included for each rate of glyphosate tested. Hemizygous plants contain two different alleles at a locus as compared to homozygous plants which contain the same two alleles at a locus. Variability of response to glyphosate is expected in the T2 generation as a result of the difference in gene dosage for hemizygous as compared to homozygous plants. The variability in response to glyphosate is reflected in the standard deviation and range of response.

B1: TraP14: chimeric chloroplast transit peptide (SEQ ID NO:3): N-terminus from Dunaliella salina GPDH, C-terminus from D. salina EPSPS (protein)
chain: MILGSSPTLPHASHPARPGPARPISVNDVVPHVYSAPLSVARRSCSKSSIRSTRRLQTTVCS
modifications: chimeric TraP14 fusion protein
translocation of GFP into chloroplasts [1]: accumulated within the chloroplasts; also recorded: successfully targeted GFP to maize chloroplasts

B2: TraP5 v2: chloroplast transit peptide fused to dgt-28 (protein)
chain: MQLLNQRQALRLGRSSASKNQQVAPLASRPASSLSVSASSVAPAPACSAPAGAGRRAVVVRA
modifications: Chloroplast Transit Peptide
tolerance to glyphosate (T2 Arabidopsis): did not provide robust tolerance to glyphosate
